In general, Kd refers to the free concentration of one partner at which half of the binding sites on the other are occupied at equilibrium, for simple one-to-one binding.

For assay [1], the target named is recombinant transferrin receptor protein (Sinobiological) (UniProt Q62351). Nature of the assay: competition TfR ELISA; reference: RmAb158-scFv8D3. For orientation: An ELISA detects its analyte on a solid surface through an enzyme-linked reagent.
Assay [2] shares this target. Nature of the assay: competition ELISA on coated recombinant TfR; competitor 2.5 nM biotinylated scFv8D3.
Assay [3] has the same target. Put plainly: TfR competition ELISA, FIG. 2D; reference: RmAb158-scFv8D3.
In a further assay the target is Aβ protofibrils (UniProt P05067). Put plainly: inhibition ELISA; reference: Aβ monomers.
The target in assay [4] is recombinant transferrin receptor protein (Sinobiological) (UniProt Q62351). Put plainly: competition TfR ELISA; references: 8D3 and 8D3-F(ab′)2-h158.
The target in assay [5] is T1, recombinant transferrin receptor protein (Sinobiological) (UniProt Q62351 89-763, limits assumed).
T1 construct: Construct limits are unknown; also called TfR; recombinant TfR protein
Put plainly: TfR competition ELISA, FIG. 2D; reference: RmAb158-scFv8D3.

The target in assay [6] is T1, recombinant transferrin receptor …. Put plainly: competition ELISA on coated recombinant TfR; competitor 2.5 nM biotinylated scFv8D3.

recombinant transferrin receptor protein (Sinobiological) (UniProt Q62351), sequence (Q62351 89-763 limits assumed): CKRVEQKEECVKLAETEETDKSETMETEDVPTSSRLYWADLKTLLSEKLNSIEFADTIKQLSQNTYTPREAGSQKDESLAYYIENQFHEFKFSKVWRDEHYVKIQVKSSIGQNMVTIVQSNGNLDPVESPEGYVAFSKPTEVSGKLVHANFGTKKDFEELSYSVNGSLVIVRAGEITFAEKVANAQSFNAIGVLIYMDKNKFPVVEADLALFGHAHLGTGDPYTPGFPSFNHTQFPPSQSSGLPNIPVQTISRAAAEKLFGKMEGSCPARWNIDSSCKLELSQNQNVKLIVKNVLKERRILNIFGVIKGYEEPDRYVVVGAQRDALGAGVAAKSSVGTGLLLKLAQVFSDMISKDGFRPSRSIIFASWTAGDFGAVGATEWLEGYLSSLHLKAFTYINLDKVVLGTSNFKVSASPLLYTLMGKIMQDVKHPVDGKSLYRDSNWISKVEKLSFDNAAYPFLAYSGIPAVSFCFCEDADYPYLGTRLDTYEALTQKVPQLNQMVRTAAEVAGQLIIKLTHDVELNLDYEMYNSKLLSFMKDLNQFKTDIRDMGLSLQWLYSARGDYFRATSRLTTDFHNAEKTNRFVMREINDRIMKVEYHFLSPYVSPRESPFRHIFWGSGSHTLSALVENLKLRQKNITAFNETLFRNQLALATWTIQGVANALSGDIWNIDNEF
T1 sequence (Q62351 89-763 limits assumed): as above

Regarding scFv8D3, the fold higher Kd in assay [1] was found to be 2 fold. The Kd in assay [2] turned out to be 15 nM.
As to “chemically conjugated fusion protein 8D3-F(ab′)2-h158 (bispecific antibody)”, in assay [3], the fold stronger binding was determined as 10 fold. In assay [2], the Kd came out at 0.69 nM.
RmAb158-scFv8D3 (bispecific antibody) showed a fold stronger binding to protofibrils than to monomers in the assay with Aβ protofibrils of 500 fold. Further, the fold lower avidity in assay [4] came out at 10 fold. For the same molecule, the Kd in assay [2] turned out to be 8 nM.

B1: anti-TfR antibody 8D3 (antibody, V domains shown)
VH: EVQLVESGGGLVQPGNSLTLSCVASGFTFSNYGMHWIRQAPKKGLEWIAMIYYDSSKMNYADTVKGRFTISRDNSKNTLYLEMNSLRSEDTAMYYCAVPTSHYVVDVWGQGVSVTVSS
VL: DIQMTQSPASLSASLEEIVTITCQASQDIGNWLAWYQQKPGKSPQLLIYGATSLADGVPSRFSGSRSGTQFSLKISRVQVEDIGIYYCLQAYNTPWTFGGGTKLELK
In the case of B1, the fold stronger binding in assay [5] is ~10 fold. In assay [6], the Kd came out at 0.8 nM.

The values are drawn from patent US11498974 (BIOARCTIC, dated 2022).
